Results as given in the nanobody polyreactivity screen of Harvey et al. (2022).

Experiment: yeast display, Sf9 membrane polyspecificity reagent, FACS + sequencing; frameworks hold sequencing errors
Procedure, shortened: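 Synthetic nanobody libraries on Saccharomyces cerevisiae BJ5465 were galactose-induced for 36–48 hours, stained 1 hour at 4 °C with 10% biotinylated, detergent-solubilized Sf9 membrane reagent and enriched on streptavidin microbeads. FACS then separated cells into low and high (top ~1%) gates by anti-HA (expression) and streptavidin (reagent binding) fluorescence. Genes were colony-PCR amplified, MiSeq 2 × 250 sequenced and CDR-length filtered. A clone's polyreactivity label is that of its gate of origin.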

Sequence | polyreactivity (PSR sort gate)
QVQLVESGGGLVQAGGSLRLSCAASGSTFGRYAMGWYRQAPGKERELVARISWGGGSTYYADSVKGRFTISRDNAKNTVYLQMNSLKPEDTAVYYCATRVYRSAVSYDYWGQGTQVTVSS | high polyreactivity
QVHLVESGRGLVQAGGSLRLSCASSGSIFSRYAMGRYREAPGKVSELVAAISRRGGRTYYADSVKGRFTISRDYAKNTVYLQMKSLKPEVTAVYYCNDRRYNVPHPNRYDYWGQGTQVTVSS | high polyreactivity
QVQLVESGGGLLQAGGSLRLSCAASGFIFRFNAMGWYRQAPWTERELVAVIRWSSGSTYYADSVKGRFTISRDNAKNTVYLQMNSRKPEDTAVYYCAAVDDEYSIVWYDYWGQGTQVTVSA | low polyreactivity
QVQLVESGGGLVQAGGSLRLSCAASGGTFGVNTMGWYSHAPGKERELVAAISNRGVSTYYADSVKGRFTISRDNAKNTVYLQMNSQKPEDTAVYYCASTNSYVYSITLDRYDYWGQGTQVTVSS | low polyreactivity
QVQLVESGGGLVQAGGSLRLSCAASGSTFQYYAMGWYRQAPGKERELVAAISYRGSTYYADSVKGRFTISRDNAKNTVYLQMNSLKPEDTAVYYCAAVNRPWYSFGYGYWGQGTQVTVSS | high polyreactivity
QFQLVESGGGLVQAGGSLRLSCASYGFTFEYNAMGGYRQSPGKESEFVATISWSGGSTYYADSVKGRFTFSRDKAKNTVYLQMNSLKPEDTAVYYCNAEVFFPSTYGMDYWGQGTQVTVSS | low polyreactivity
QVQLEESGGGLVQAGGSLRISCAASGRTFNYNAIGWYRQAPGKERELVAAITSGGRTNYADSVKGRFTISRDNAKNTVYLQMNSLKPEDTAVYYCATEYYRYRWVGAFRYPVYYWGQGTQVTVSS | low polyreactivity
QVQLVESGGGLVQAGGSLRLSCAASGSIFVDNAMGWYRQAPGKERELVAAITDSGGRTYYADSVKGRFTISRDNAKNTVYLQMNSLKPEDTAVYYCAAGQSGYAGRRPAFGYWGQGTQVTVSS | low polyreactivity
QVQLVESGGGLVQAGGSLRLSCAASGSIFRAYAMGWYRQAPGKERELVADISRSGGSTYYADSVKGRFTISRDNAKNTVYLQMNSLKPEDTAVYYCAAVFYLYSNLYGEYDYWGQGTQVTVSS | low polyreactivity
QVQLVESGGGLVQAGGSLRLSCAASGFIFRYYGMGWYRQAPGKERELVAAITDGGSTTYADSVKGRFTISRDNAKNTVYLQMNSLKPEDTAVYYCNAEAGGFDYYGKTYRYGDYWGQGTQVTVSS | low polyreactivity
QVQLVESGGGLVQPGGSLRLSCAASGRISSKYAMGWYRQAPGKERELVATISSRGGSTYYADSVKGRFTISRDNAKNTVYLQMNSLKPEDTAVYYCNRPTYLHSTSYSYDYWGQGTQVTVSS | low polyreactivity
QVQRVESGGALVQAGGSLRLSCAASGRIFGGYAMGWYRQAPGKERELVAAISSRGGSTYYADSVKGRFTISRDNAKNTVYLQMNSLKPEDTAVYYCAADGRVKGWGQGTQVTVSS | high polyreactivity
QVQLVESGGGLVQAGGSLRLRCAASGSTFTSYTMGWYRQAPGKERELVARITRGGGSTYYADSVKGRFTISRDNAKNTVYLQMNSLKPEDTAVYYCAKQVVGRAYYSWGQGTQVTVSS | low polyreactivity
QVQLVESGGGLVQAGGSLRLSCAASGLIFARYAMGWYRQAPGKERELVAAISSRGGGTYYADSVKGRFTISRDNAKNTVYLQMNSLKPEDTAVYYCNRLRGTPVGLSIGGYYYWGQGTQVTVSS | high polyreactivity
QVQLVESGGGLVQAGGSLRLSCAASGNIFPGYAMGWYRQAPGKERELVAGISGSGGRTYYADSVKGRFTISRDNAKNTVYLQMNSLKTEDTAVYYCAAAFKYYYRFEYDYWGQGTQVTVSS | low polyreactivity
QVQLVESGGGLVQAGGSLRLSCAASGITFVGNAMGWYRQAPGKERELVAVISRGDSTNYADSVKGRFTISRDNAKNTVYLQMNSLKPEDTAVYYCAADGSRAGQEGNDYCGQGTQVTVSS | low polyreactivity
QVQLVESGGGVVQAGGSLRLSCAASGRTFGWNTMGWYRQAPGKERELVAAISYSTGRTYYADSVKGRFTISRDNAKYTVYLQMNSLKPEDTAVYYCAATRPYRYNYWGQGTQVTVSS | high polyreactivity
QVQLVESGGGLVQAGGSLRLSCAASGSIFGGYSMGWYRQAPGKEMELVARISSGGSTYYADSVKGRFTISRDNAKNTVYLQMNSLKQEDTAVYYCNAKTYTWWGLYEYWGQGTQVTVSS | high polyreactivity
QVQLVESGGGLVQAAGSLRLSCAASGSTFAANAMGWYRQAPGKERELVAAITWTGGSTYYADSVKGRFTISRDNAKNTVYLQMNSLKPEDTAVYYCARRSYGRYYYRYRAYDYWGQGTQVTVSS | high polyreactivity
QVQLVESGGGLVQAGGSLRLSCAASGRIFVNNAMGWYRQAPGKEREFVAGISFSGDGRTYYADSVKGRFTISRDNAKNTVYLQMNSLKPEDTAVYYCAAPHRSRTHELDYWGQGTQVTVSS | low polyreactivity

Sequence | polyreactivity (PSR sort gate)
QVQLVESGGGLVQAGGSLRLSCAASGRIFQQYALGWYRQAPGKEREWVAVITYRAGRTHYADSVKGRFTISRDNAKNTVYLQMNSLKPEDTAVYYCAAGRYYAVWQSISGFDSWGQGTQVTVSS | low polyreactivity
QVQLVESGGGLVQEGGSLRLSCAASGRTFTTYAMGWYRQAPGKERELVAAISDTGGITYYADSVKGRFTISRDTAKNTVYIQMNSLKPEDTAVYYCNAESYGGDYDYWGQGTQVTVSS | low polyreactivity
QVQLVESGGGLVQAGGSLRLSCAASGSIFQGNVMGWSRQAPGKERELVAAISSGGRTYYADSVKGRFTISRDNAKNTVYLQMNSLKPEDTAVYYCAASWLTSYAYIMYYWGQGTQVTVSS | high polyreactivity
QVQLVESGGGLVQAGGSLRLSCAASGSIRSYAMGWYRQAPGKERELVAAITRSGGSTYYADSVKGRFTISRDNAMNTVYLQMNSLKPEDTAVYYCAARYTYSYPLFGSWGQGTQVTVSS | high polyreactivity
QVQLVESGGGLVQAGGSLRLSCAASGSTFLRYAMGWYRQAPGKERELVATISRCDDGTYYADSVKGRFKISRDNEKNTVFLQMNSLKPEDNAVYYCDARSWYLYYYWGQGTQVTVSS | low polyreactivity
QVQLVESGGGLVQAGGSLRLSCAASGFIFWDNTMGWYRQAPGKERELVAAISGGDGTYYADSVKGRFTISRDNAKNTVYLQLNSLKPEDTAVYYCNAATAEVKLYGKYDYWGQGTQVTVSS | low polyreactivity
QVQLVESGGGLVQAGGSLRLSCAASGSIFTFYAMGWYRQAPVKERELVAGIRWRGGTSTFYADSVKGRFTISRDNAKNTVYLQMNSLKPEDTAVYYCAAKRRTGGNGYWGQGTQVTVSS | high polyreactivity
QVQLVESGGGLVQAGGSLRLSCAASGRISQIYAMGWYRQAPWKERELVARITSTDSTYYADSVKGRFTISRDNAKNTVYLQMNSLKPEDTAVYYCAASWWSPYDYWGQGTQVTVSS | low polyreactivity
QVQLVESGGGLVQAGGSHRLTCAASGSTFFAYAIGCYRPAPGTERELVAAISSRGGRTYYADSVKGRFTISRDNAQNTVYLQMNSLKPEDTAVYYCAVGPGLAQSYDYWGQGTQVTVSS | high polyreactivity
QVQLVEAGGCLVHAGGSLRLSCAASGRIFVGNAMGWYRQAPGKERELVAAINNGGTTYYADSVKGRFTIARDNGKNTVYLQMNSLKPEDTAVYHCAATPYRGTRSYLIGELDYWGQGTQVTVSS | low polyreactivity
QVQLEESGGGLVQAGGSLRLSCAASGRTFGRNAMGWYRQAPGERELVAVISRGGSTYYADSVKGRFTISRDNAKNSVYLQMNSLIPEDTAVYYCNADTVYTRTAPYDYWGQGTQVTVSS | low polyreactivity
QVQLVESGGGLVQAGGSLRLSCAASGSIFAPNAMGWYRQAPRKEREFVAGITQSGTSTYADSVKGRFTISRDNAKNTVYLQMNSLKPEDTAVYYCAAEYYYGYWYGYIISYDYWGQGTQVTVSS | high polyreactivity
QVQLVESGGGLVQAGGSLRLSCAASGSIFVINAMGWYRQAPGKERELVAAISYSGTGTYYADSVKGRFTISRDNAKNTVYLQMNSLKPEDTAVYYCAADYYYRYRIYDYWGQGTQVTVSS | low polyreactivity
QVQLVESGGGLVQAGGRLRLSCAASGNIFYAYALGWYRQAPGKERELVAAISWSGDSTYYADSVKGRFTISRDNAKNTVYLQMNSLKPEDTAVYYCAARKVTYHYQWMDYWGQGTQVTVSS | low polyreactivity
QVQLVESGGGLVQAGGSLRLSCAASGFTFRFYAMGWYRQAPGKERELVAAISYNGGSTYYADSVKGRFTISRDNAKNTVYLQMNSLKPEDTAVYYCAAGYYWQYTSSSAQYAYDYWGQGTQVTVSS | low polyreactivity
QVKLVESAGGLVQAGGSRRLSCAASGSIFRAYAMGWYRQAPGKESELVADISRSGGSTYYADSVKGRFTISRDNAKNNVYLQMNSLIPEDTAVYYCNRLPQYALPYRHNGYWGQGTQVTVSS | low polyreactivity
QVHLVESGGGLVQAGGSLRLSFAASGLIFFVYAMGWYRQAPGIERELVAGIRSSGGSTYYADSVKGRFTISRDNAKNTVYLQMNSLKPEDTAVYYCAARYRYGWAYRKGGDYWGQGTKVTVSS | high polyreactivity
QVQLVESGGGLVQAGGSLRLSCAASGRIFGFYALGWYRQAPGKERELVAAITVSGSSTRYADSVKGRFTISRDNAKNTVYLQMNSLKPDDTAVYYCAASVGQFRYRYKWTFGNARMYYWGQGTQVTVSS | high polyreactivity
QVQLVESGGGLVQAGGSLRLSCAASGSIFTFYAMGWYRQAPGKERELVAAISYGGGITYYADSVKGRFTISRDNAKISVYLQMNSLIPEDSAVYYCAADDGYYNLYFDYDFWGQGTQLTVSS | low polyreactivity
QVQLVESGGGLVQAGGSLRLSCAASGNTFSGNAMGWYRQAPGKERELVAAISGSGASTYYADSVKGRFTISRDNAKNTVYLQMNSLKPEDTAVYYCAADKPGIFSRFDYWGQGTQVTVSS | low polyreactivity
